Two molecules from doi:10.1101/2022.07.21.500988, “Molecular insight into the enzymatic macrocyclization of multiply backbone N-methylated peptides” (bioRxiv, 2022) can be followed below.

The target in this assay is T1, OphP(S580A) (Omphalotus olearius, S580A).
T1 construct: also called OphP variant S580A
T1 chain: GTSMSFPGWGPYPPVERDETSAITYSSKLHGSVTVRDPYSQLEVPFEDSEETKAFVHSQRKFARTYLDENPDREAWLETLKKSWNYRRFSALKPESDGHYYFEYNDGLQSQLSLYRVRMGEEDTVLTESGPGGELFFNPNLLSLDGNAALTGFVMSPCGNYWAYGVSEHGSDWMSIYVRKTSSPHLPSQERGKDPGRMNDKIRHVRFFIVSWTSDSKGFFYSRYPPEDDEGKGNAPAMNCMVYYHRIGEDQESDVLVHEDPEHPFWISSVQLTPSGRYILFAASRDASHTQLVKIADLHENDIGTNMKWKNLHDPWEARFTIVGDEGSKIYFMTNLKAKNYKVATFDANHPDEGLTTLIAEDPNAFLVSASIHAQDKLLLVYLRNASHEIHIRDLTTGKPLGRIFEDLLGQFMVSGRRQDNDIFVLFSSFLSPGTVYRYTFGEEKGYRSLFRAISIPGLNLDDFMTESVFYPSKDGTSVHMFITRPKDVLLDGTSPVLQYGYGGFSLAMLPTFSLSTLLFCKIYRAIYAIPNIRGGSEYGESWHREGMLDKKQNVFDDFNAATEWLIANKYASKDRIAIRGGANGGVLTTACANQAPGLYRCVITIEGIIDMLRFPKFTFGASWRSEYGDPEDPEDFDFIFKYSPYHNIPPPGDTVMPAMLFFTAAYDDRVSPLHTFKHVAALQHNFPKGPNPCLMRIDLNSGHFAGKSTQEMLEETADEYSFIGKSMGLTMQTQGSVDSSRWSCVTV
Briefly: crystal structure. The note with it: both partners purified.

On to WVIVVGVIGVIGSVMSTE (also called 18mer^CF) [Oph-18mer^NL], for which the binding result is on record as “binds”.
As to GFPWVIVVGVIGVIG [Oph-15mer], the binding result is “binds”.
